Test results reported in article PMC3279696.

Molecular target: NLGN-1ΔAB-Fc (neuroligin-1 lacking splice inserts A and B, residues Q46-S693, with a C-terminal Fc domain) (UniProt Q62765)
Assay: SPR

Kd: 30 nM
Substance: β-NRXN-1 (ΔSS#4), soluble recombinant (domain or fragment)
